Experimental data as given in publication PMC5352738, “Characterization of three pyranose dehydrogenase isoforms from the litter-decomposing basidiomycete Leucoagaricus meleagris (syn. Agaricus meleagris)” (Applied Microbiology and Biotechnology, 2016).

Each substance was assayed on CCn1c(=N[N]c2sc3cc(S(=O)(=O)O)ccc3[n+]2CC)sc2cc(S(=O)(=O)O)ccc21 (assay: purified protein). Details: pH 4.0; 30.0 °C.

Substance	Km	kcat/Km
AmPDH1 (Macropsalliota meleagris)	79.1 ± 9 µM	94600 M⁻¹ s⁻¹
AmPDH2 (Macropsalliota meleagris)	109 ± 10 µM	38900 M⁻¹ s⁻¹
AmPDH3 (Macropsalliota meleagris)	13.2 ± 1.2 µM	532000 M⁻¹ s⁻¹
